Measured values from PMC3298750 (Nature immunology, 2011).
Non-standard residues stand in square brackets, D forms with d. No end group written: not given here. pS = N[C@@H](COP(=O)(O)O)C(=O)O

Biological target: 15N-WW domain of Pin1 (tag removed) (UniProt Q13526 5-39, 15N-labelled)
Assay: NMR titration

Chain of 15N-WW domain of Pin1 (tag removed) (Q13526 5-39): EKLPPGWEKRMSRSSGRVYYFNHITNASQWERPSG

Kd [µM]	Binder
260 ± 75	ELGLVPSPASLWPPPP[pS]PAPSSTK [IRAK1 phosphopeptide 157-180 (pSer173-P174)]
120 ± 12	STFL[pS]PAFPGS [IRAK1 phosphopeptide 140-150 (pSer144-P145)]
220 ± 15	EAEAW[pS]PRKLP [IRAK1 phosphopeptide 126-136 (pSer131-P132)]
